Each block holds one molecule with its values, some of them ahead of it.
Columns and labels:
[1] = biological target: Factor VIII:C Mr 80 K polypeptide (FVIII-LC) encoded by pSVF8-80 (human) (UniProt P00451)
[2] = biological target: Factor VIII:C Mr 80 K polypeptide (FVIII-LC) encoded by pSVF8-80 (human) (UniProt P00451); remark: listed apart in the source
[3] = biological target: Factor VIII:C Mr 80 K polypeptide (FVIII-LC) encoded by pSVF8-80 (human) (UniProt P00451); remark: listed apart in the source
[4] = biological target: Factor VIII:C Mr 80 K polypeptide (FVIII-LC) encoded by pSVF8-80 (human) (UniProt P00451); remark: listed apart in the source
[5] = biological target: Factor VIII:C Mr 80 K polypeptide (FVIII-LC) encoded by pSVF8-80 (human) (UniProt P00451); remark: listed apart in the source
[6] = biological target: Factor VIII:C Mr 80 K polypeptide (FVIII-LC) encoded by pSVF8-80 (human) (UniProt P00451); remark: listed apart in the source
[7] = biological target: T1, Factor VIII:C 80 K light chain encoded by pSVF8-80KG (human, UniProt P00451); experiment: cell-based or functional assay
T1 chain: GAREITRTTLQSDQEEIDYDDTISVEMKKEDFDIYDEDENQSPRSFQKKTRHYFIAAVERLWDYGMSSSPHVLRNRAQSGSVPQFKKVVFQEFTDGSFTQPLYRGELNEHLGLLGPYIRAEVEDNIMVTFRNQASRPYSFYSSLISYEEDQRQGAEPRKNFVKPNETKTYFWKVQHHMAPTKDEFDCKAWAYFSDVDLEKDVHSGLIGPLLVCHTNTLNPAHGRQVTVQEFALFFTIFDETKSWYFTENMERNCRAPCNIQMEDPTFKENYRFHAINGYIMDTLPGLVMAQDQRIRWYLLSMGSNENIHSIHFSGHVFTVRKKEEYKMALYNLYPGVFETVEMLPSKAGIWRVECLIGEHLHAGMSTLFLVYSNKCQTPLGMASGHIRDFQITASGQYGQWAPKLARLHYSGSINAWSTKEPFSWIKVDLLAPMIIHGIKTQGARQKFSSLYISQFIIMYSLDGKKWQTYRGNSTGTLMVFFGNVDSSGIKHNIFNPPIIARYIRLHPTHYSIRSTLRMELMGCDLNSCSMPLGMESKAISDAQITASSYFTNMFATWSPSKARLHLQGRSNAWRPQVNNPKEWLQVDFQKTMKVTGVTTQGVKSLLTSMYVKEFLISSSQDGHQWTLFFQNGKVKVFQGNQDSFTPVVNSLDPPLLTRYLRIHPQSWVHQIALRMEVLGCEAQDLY

[8] = biological target: T2, Factor VIII:C 80 K light chain encoded by pSVF8-80S (human, UniProt P00451); experiment: cell-based or functional assay
T2 chain: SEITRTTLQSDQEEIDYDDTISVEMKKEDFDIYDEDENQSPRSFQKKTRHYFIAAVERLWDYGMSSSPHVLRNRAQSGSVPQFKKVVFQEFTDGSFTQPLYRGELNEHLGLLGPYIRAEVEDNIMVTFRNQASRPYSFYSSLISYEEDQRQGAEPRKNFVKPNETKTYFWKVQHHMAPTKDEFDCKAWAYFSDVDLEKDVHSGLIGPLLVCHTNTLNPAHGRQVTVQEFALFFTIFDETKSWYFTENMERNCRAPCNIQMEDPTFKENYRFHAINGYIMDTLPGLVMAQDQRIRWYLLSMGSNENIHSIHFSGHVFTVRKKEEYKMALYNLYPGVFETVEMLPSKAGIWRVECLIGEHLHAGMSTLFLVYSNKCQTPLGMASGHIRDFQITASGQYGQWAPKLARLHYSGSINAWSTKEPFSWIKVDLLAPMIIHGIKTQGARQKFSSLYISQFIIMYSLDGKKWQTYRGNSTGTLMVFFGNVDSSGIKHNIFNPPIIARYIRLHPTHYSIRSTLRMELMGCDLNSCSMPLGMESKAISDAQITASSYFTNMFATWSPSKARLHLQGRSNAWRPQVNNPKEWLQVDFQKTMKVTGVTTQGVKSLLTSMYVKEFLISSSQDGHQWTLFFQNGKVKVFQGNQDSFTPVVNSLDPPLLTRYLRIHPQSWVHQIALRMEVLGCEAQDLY

[9] = biological target: T3, Factor VIII:C 80 K light chain encoded by pSVF8-80A (human, UniProt P00451); experiment: cell-based or functional assay
T3 chain: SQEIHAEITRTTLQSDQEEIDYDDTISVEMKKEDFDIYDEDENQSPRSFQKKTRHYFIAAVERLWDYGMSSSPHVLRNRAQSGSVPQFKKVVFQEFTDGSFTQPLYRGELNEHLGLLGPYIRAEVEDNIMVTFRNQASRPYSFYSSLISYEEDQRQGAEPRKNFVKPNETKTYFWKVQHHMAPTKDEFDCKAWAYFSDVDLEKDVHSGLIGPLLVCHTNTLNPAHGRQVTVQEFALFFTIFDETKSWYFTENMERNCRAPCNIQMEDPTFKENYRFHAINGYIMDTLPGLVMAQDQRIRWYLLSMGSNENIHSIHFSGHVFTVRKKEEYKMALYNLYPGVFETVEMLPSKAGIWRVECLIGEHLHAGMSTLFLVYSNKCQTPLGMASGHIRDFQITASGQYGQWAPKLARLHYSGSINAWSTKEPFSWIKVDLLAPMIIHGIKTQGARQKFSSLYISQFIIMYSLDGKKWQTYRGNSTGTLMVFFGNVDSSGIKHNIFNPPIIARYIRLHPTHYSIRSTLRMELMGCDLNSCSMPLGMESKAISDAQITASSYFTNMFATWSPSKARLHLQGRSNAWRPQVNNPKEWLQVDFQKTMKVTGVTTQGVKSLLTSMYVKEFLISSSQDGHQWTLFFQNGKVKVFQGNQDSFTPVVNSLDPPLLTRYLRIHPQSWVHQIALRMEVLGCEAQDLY

[10] = biological target: Factor VIII:C light chain encoded by pSVF8-80AT (alpha1-antitrypsin signal peptide) (human, UniProt P00451); experiment: cell-based or functional assay

Molecule: 1323 amino acid Factor VIII:C heavy chain encoded by pSVF8-160 (from UniProt P00451)
ratio of RIA to COATEST activity [1]: 1.8

Molecule: Factor VIII:C 92 K heavy chain encoded by pSVF8-92C (from UniProt P00451)
mU COATEST/mL (stable CHO cell line 11-D6) [3]: 43 mU/mL
COA (COATEST) mU/mL, cotransfected COS7 cells [2]: 46 mU/mL

Molecule: Factor VIII:C Mr 92 K polypeptide (FVIII-HC) encoded by pSVF8-92 (from UniProt P00451)
COATEST Activity mU/mL (medium of cotransfected COS7 cells) [6]: 20.4 mU/mL
COATEST Activity mU/mL (supernatants of separate transfectants mixed) [6]: < 0.1 mU/mL
Coagulation Activity mU/mL (one-stage assay, medium of cotransfected COS7 cells) [6]: 22.5 mU/mL
Coagulation Activity mU/mL (supernatants of separate transfectants mixed) [6]: < 0.9 mU/mL

B1: purified recombinant FVIII:C heavy chains (from full-length human FVIII:C) (other)
chain: ATRRYYLGAVELSWDYMQSDLGELPVDARFPPRVPKSFPFNTSVVYKKTLFVEFTDHLFNIAKPRPPWMGLLGPTIQAEVYDTVVITLKNMASHPVSLHAVGVSYWKASEGAEYDDQTSQREKEDDKVFPGGSHTYVWQVLKENGPMASDPLCLTYSYLSHVDLVKDLNSGLIGALLVCREGSLAKEKTQTLHKFILLFAVFDEGKSWHSETKNSLMQDRDAASARAWPKMHTVNGYVNRSLPGLIGCHRKSVYWHVIGMGTTPEVHSIFLEGHTFLVRNHRQASLEISPITFLTAQTLLMDLGQFLLFCHISSHQHDGMEAYVKVDSCPEEPQLRMKNNEEAEDYDDDLTDSEMDVVRFDDDNSPSFIQIRSVAKKHPKTWVHYIAAEEEDWDYAPLVLAPDDRSYKSQYLNNGPQRIGRKYKKVRFMAYTDETFKTREAIQHESGILGPLLYGEVGDTLLIIFKNQASRPYNIYPHGITDVRPLYSRRLPKGVKHLKDFPILPGEIFKYKWTVTVEDGPTKSDPRCLTRYYSSFVNMERDLASGLIGPLLICYKESVDQRGNQIMSDKRNVILFSVFDENRSWYLTENIQRFLPNPAGVQLEDPEFQASNIMHSINGYVFDSLQLSVCLHEVAYWYILSIGAQTDFLSVFFSGYTFKHKMVYEDTLTLFPFSGETVFMSMENPGLWILGCHNSDFRNRGMTALLKVSSCDKNTGDYYEDSYEDISAYLLSKNNAIEPR
Percent Control Activity (COATEST after in vitro combination of purified chains) [7]: 233 percent of control activity
Percent Control Activity (COATEST after in vitro combination of purified chains) [8]: 51 percent of control activity
Percent Control Activity (COATEST after in vitro combination of purified chains) [9]: 92 percent of control activity
Percent Control Activity (COATEST after in vitro combination of purified chains) [10]: 86 percent of control activity

Now from value to molecule:

ratio of RIA to COATEST activity [1]: 1.8
Molecule: 1416 amino acid Factor VIII:C heavy chain encoded by pSVF8-170 (from UniProt P00451)

COA (COATEST) mU/mL, cotransfected COS7 cells [2]: 87 mU/mL
Molecule: Factor VIII:C 92 K heavy chain encoded by pCMVF8-92/6x (from UniProt P00451)

COATEST (mU/mL) (stable CHO clone 10C2-D2, 0.05 uM methotrexate) [4]: 496 mU/mL
Factor VIII:C activity of medium of COS7 cells cotransfected with pSVF8-80 [5]: 1.65 fold
ratio of RIA to COATEST activity [1]: 7.2
Molecule: Factor VIII:C Mr 92 K heavy chain encoded by pSVF8-92E (from UniProt P00451)
